Test results: patent US20230295301A1 (SHANGHAI JUNSHI BIOSCIENCES, published 2023)

B1: HuJS007-63 (antibody, V domains shown)
VH: QVQLQESGPGLVKPSETLSLTCTVSGYSITSGYYWNWIRQPPGKGLEWIGYIGYDGSNNYNPSLKSRVTISRDTSKNQFSLKLSSVTAADTAVYYCARDYYSGYFDSWGQGTTLTVSS
VL: EIVMTQSPATLSVSPGERATLSCKASQNVGTYVAWYQQKPGQAPRPLIYSTSYRYSGIPARFSGSGSGTEFTLTISSLQSEDFAVYFCHQYDTYPLTFGQGTKLEIK
notes: 4B7 VH2-3 + 4B7VL9; constant regions not specified
B2: HuJS007-70 (antibody, V domains shown)
VH: QVQLQESGPGLVKPSQTLSLTCAVSAYSITSGYYWNWIRQHPGKGLEWIGYIGYDGSNNYNPSLKSRVTISRDTSKNQFSLKLSSVTAADTAVYYCARDYYSGYFDSWGQGTTLTVSS
VL: EIVMTQSPATLSVSPGERATLSCRASQNVGTYVAWYQQKPGQAPRPLIYSTSYRYSGIPARFSGSGSGTEFTLTISSLQSEDFAVYYCHQYDTYPLTFGQGTKLEIK
notes: 4B7 VH2-4 + 4B7VL7; constant regions not specified
B3: HuJS007-72 (antibody, V domains shown)
VH: QVQLQESGPGLVKPSQTLSLTCAVSAYSITSGYYWNWIRQHPGKGLEWIGYIGYDGSNNYNPSLKSRVTISRDTSKNQFSLKLSSVTAADTAVYYCARDYYSGYFDSWGQGTTLTVSS
VL: EIVMTQSPATLSVSPGERATLSCKASQNVGTYVAWYQQKPGQAPRPLIYSTSYRYSGIPARFSGSGSGTEFTLTISSLQSEDFAVYFCHQYDTYPLTFGQGTKLEIK
notes: 4B7 VH2-4 + 4B7VL9; constant regions not specified
B4: HuJS007-81 (antibody, V domains shown)
VH: QVQLQESGPGLVKPSQTLSLTCAVSGYSISSGYYWNWIRQPPGKGLEWIGYIGYDGSNYYNPSLKSRVTMSVDTSKNQFSLKLSSVTAVDTAVYYCARNYYSGYFDSWGQGTTVTVSS
VL: EIVMTQSPATLSVSPGERATLSCKASQNVGTYVAWYQQKPGQAPRPLIYSTSYRYSGIPARFSGSGSGTEFTLTISSLQSEDFAVYFCHQYDTYPLTFGQGTKLEIK
notes: 1A5 VH5 + 4B7VL9; constant regions not specified
B5: HuJS007-90 (antibody, V domains shown)
VH: QVQLQESGPGLVKPSQTLSLTCAVSGYSISSGYYWNWIRQFPGKGLEWMGYIGYDGSNYYNPSLKNRVTMSVDTSKNQFSLKLSSVTAVDTAVYYCARNYYSGYFDSWGQGTTVTVSS
VL: EIVMTQSPATLSVSPGERATLSCKASQNVGTYVAWYQQKPGQAPRPLIYSTSYRYSGIPARFSGSGSGTEFTLTISSLQSEDFAVYFCHQYDTYPLTFGQGTKLEIK
notes: 1A5 VH6 + 4B7VL9; constant regions not specified
B6: HuJS007-108 (antibody, V domains shown)
VH: QVQLQESGPGLVKPSQTLSLTCAVSGYSITSGYYWNWIRQPPGKGLEWIGYIGYDGSNNYNPSLKNRVTMSVDTSKNQFSLKLSSVTAVDTAVYYCARDYYSGYFDSWGQGTTVTVSS
VL: EIVMTQSPATLSVSPGERATLSCKASQNVGTYVAWYQQKPGQAPRPLIYSTSYRYSGIPARFSGSGSGTEFTLTISSLQSEDFAVYFCHQYDTYPLTFGQGTKLEIK
notes: 4B7 VH2-5 + 4B7VL9; constant regions not specified
B7: huJS007-79 (antibody, human IgG1, kappa, V domains shown)
VH: QVQLQESGPGLVKPSQTLSLTCAVSGYSISSGYYWNWIRQPPGKGLEWIGYIGYDGSNYYNPSLKSRVTMSVDTSKNQFSLKLSSVTAVDTAVYYCARNYYSGYFDSWGQGTTVTVSS
VL: EIVMTQSPATLSVSPGERATLSCRASQNVGTYVAWYQQKPGQAPRPLIYSTSYRYSGIPARFSGSGSGTEFTLTISSLQSEDFAVYYCHQYDTYPLTFGQGTKLEIKR
B8: huJS007-106 (antibody, human IgG1, kappa, V domains shown)
VH: QVQLQESGPGLVKPSQTLSLTCAVSGYSITSGYYWNWIRQPPGKGLEWIGYIGYDGSNNYNPSLKNRVTMSVDTSKNQFSLKLSSVTAVDTAVYYCARDYYSGYFDSWGQGTTVTVSS
VL: EIVMTQSPATLSVSPGERATLSCRASQNVGTYVAWYQQKPGQAPRPLIYSTSYRYSGIPARFSGSGSGTEFTLTISSLQSEDFAVYYCHQYDTYPLTFGQGTKLEIKR
B9: HuJS007-82 (antibody, V domains shown)
VH: QVQLQESGPGLVKPSQTLSLTCAVSGYSISSGYYWNWIRQFPGKGLEWMGYIGYDGSNYYNPSLKNRVTMSVDTSKNQFSLKLSSVTAVDTAVYYCARNYYSGYFDSWGQGTTVTVSS
VL: DIVMTQSPDSLAVSLGERATINCKASQNVGTYVAWYQQKPGQPPKPLIYSTSYRYSGVPDRFSGSGSGTDFTLTISSLQAEDVAVYFCHQYDTYPLTFGAGTKLELK
notes: 1A5 VH6 + 4B7VL1; constant regions not specified
B10: HuJS007-83 (antibody, V domains shown)
VH: QVQLQESGPGLVKPSQTLSLTCAVSGYSISSGYYWNWIRQFPGKGLEWMGYIGYDGSNYYNPSLKNRVTMSVDTSKNQFSLKLSSVTAVDTAVYYCARNYYSGYFDSWGQGTTVTVSS
VL: DIQMTQSPSSLSASVGDRVTITCRASQNVGTYVAWYQQKPGKVPKPLIYSTSYRYSGVPSRFSGSGSGTDFTLTISSLQPEDVATYFCHQYDTYPLTFGAGTKLELK
notes: 1A5 VH6 + 4B7VL2; constant regions not specified
B11: HuJS007-85 (antibody, V domains shown)
VH: QVQLQESGPGLVKPSQTLSLTCAVSGYSISSGYYWNWIRQFPGKGLEWMGYIGYDGSNYYNPSLKNRVTMSVDTSKNQFSLKLSSVTAVDTAVYYCARNYYSGYFDSWGQGTTVTVSS
VL: DIQMTQSPSFLSASVGDRVTITCRASQNVGTYVAWYQQKPGKAPKPLIYSTSYRYSGVPSRFSGSGSGTEFTLTISSLQPEDFATYFCHQYDTYPLTFGAGTKLELK
notes: 1A5 VH6 + 4B7VL4; constant regions not specified
B12: HuJS007-86 (antibody, V domains shown)
VH: QVQLQESGPGLVKPSQTLSLTCAVSGYSISSGYYWNWIRQFPGKGLEWMGYIGYDGSNYYNPSLKNRVTMSVDTSKNQFSLKLSSVTAVDTAVYYCARNYYSGYFDSWGQGTTVTVSS
VL: DIQMTQSPSSLSASVGDRVTITCQASQNVGTYVAWYQQKPGKAPKPLIYSTSYRYSGVPSRFSGSGSGTDFTFTISSLQPEDIATYFCHQYDTYPLTFGAGTKLELK
notes: 1A5 VH6 + 4B7VL5; constant regions not specified
B13: HuJS007-87 (antibody, V domains shown)
VH: QVQLQESGPGLVKPSQTLSLTCAVSGYSISSGYYWNWIRQFPGKGLEWMGYIGYDGSNYYNPSLKNRVTMSVDTSKNQFSLKLSSVTAVDTAVYYCARNYYSGYFDSWGQGTTVTVSS
VL: DIVMTQSPDSLAVSLGERATINCKASQNVGTYVAWYQQKPGQPPKLLIYSTSYRYSGVPDRFSGSGSGTDFTLTISSLQAEDVAVYYCHQYDTYPLTFGQGTKLEIK
notes: 1A5 VH6 + 4B7VL6; constant regions not specified
B14: HuJS007-88 (antibody, V domains shown)
VH: QVQLQESGPGLVKPSQTLSLTCAVSGYSISSGYYWNWIRQFPGKGLEWMGYIGYDGSNYYNPSLKNRVTMSVDTSKNQFSLKLSSVTAVDTAVYYCARNYYSGYFDSWGQGTTVTVSS
VL: EIVMTQSPATLSVSPGERATLSCRASQNVGTYVAWYQQKPGQAPRPLIYSTSYRYSGIPARFSGSGSGTEFTLTISSLQSEDFAVYYCHQYDTYPLTFGQGTKLEIK
notes: 1A5 VH6 + 4B7VL7; constant regions not specified

Target: T1, huCTLA-4 ECD (his-tag) (human, UniProt P16410 37-162)
T1 construct: also called HX1 hCTLA4 his; HX1 huCTLA4 his; not shown: his-tag
T1 sequence: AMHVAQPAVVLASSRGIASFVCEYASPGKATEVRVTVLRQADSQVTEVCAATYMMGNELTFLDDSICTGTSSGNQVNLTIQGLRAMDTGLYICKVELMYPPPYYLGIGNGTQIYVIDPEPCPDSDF
Test: ELISA, coated huCTLA-4 his
Protocol: HX1 hCTLA4 his was diluted with PBS (Hyclone) to 1.0 μg/mL, and the dilution was added to a microplate at 100 μL/well. The plate was let stand in an incubator at 37° C. and coated for 90 min and then washed, and 2% BSA was added to the plate at 200 μL/well. The plate was incubated in an incubator at 37° C. for 90 min and then washed. The humanized anti-CTLA-4 antibodies in Table 4 and the control antibody (ipilimumab) were diluted with a diluent (2% BSA) to 1000 ng/mL. The dilution performed each time was not higher than 10-fold. Then, the humanized antibodies and the control antibody were serially diluted 2.5-fold on a sample dilution plate. All the humanized antibody solutions and the control antibody solution were added to a microplate at 100 μL/well. The plate was incubated in an incubator at 37° C. for 60 min and then washed. An HRP-conjugated goat anti-human antibody IgG (Fc specific) was diluted 5000-fold with 2% BSA, and the dilution was added to the microplate at 100 μL/well. The plate was incubated in an incubator at 37° C. for 60 min and then washed. The color development solution TMB was added at 100 μL/well, during which bubbles were avoided. Color development was allowed at 37° C. for 15 min in the dark and then terminated by adding 2 M hydrochloric acid solution at 100 μL/well, during which bubbles were avoided. Reading (wavelength: 450/620 nm) was done within 10 min using a microplate reader.

Binder | binding result
B1 | binds
B2 | binds
B3 | binds
B4 | binds
B5 | binds
B6 | binds
B7 | binds
B8 | binds
B9 | binds
B10 | binds
B11 | binds
B12 | binds
B13 | binds
B14 | binds
